Measurements: US20030054336A1

How the values were obtained:
[1] = biological target: Antigen 2 (Consensus D, biotinylated peptide from gp41 epitope region II of HIV1 subtype D) (HIV1 subtype D (consensus)); experiment: bridge ELISA, Bi-Antigen 2 + Dig-Antigen 4
[2] = biological target: Antigen 1 (Consensus B, biotinylated peptide from gp41 epitope region II of HIV1 subtype B) (HIV1 subtype B (consensus)); experiment: bridge ELISA, Bi-Antigen 1 + Dig-Antigen 3

Negative control
signal [1]: 0.03 U | signal [2]: 0.05 U
